Laboratory results published in article PMC11662928, “L1-ORF1p nucleoprotein can rapidly assume distinct conformations and simultaneously bind more than one nucleic acid”.

Key:
ORF1p WT (111p) [1] = target: ORF1p WT (111p) (UniProt Q9UN81); experiment: optical tweezers; conditions: 30 pN; K* = compact and de-compact states equally occupied, not a simple Kd; Binding buffer with 50 mM Na+ (pH and other components not in the material), 21 C (stated for m128p); 8.1 knt ssDNA held at 5-50 pN
ORF1p WT (111p) [2] = target: ORF1p WT (111p) (UniProt Q9UN81); experiment: optical tweezers (koff/kon); conditions: 30 pN tension, 1 nM ORF1p; Binding buffer with 50 mM Na+ (pH and other components not in the material), 21 C (stated for m128p); 8.1 knt ssDNA held at 5-50 pN
[3] = target: m128p (CTD, RRM, 3.5 of 14 CC heptads) (UniProt Q9UN81); experiment: optical tweezers (koff/kon); conditions: Binding buffer with 50 mM Na+ (pH and other components not in the material), 21 C (stated for m128p); 8.1 knt ssDNA held at 5-50 pN
ORF1p WT (111p) [4] = target: ORF1p WT (111p) (UniProt Q9UN81 1-338); experiment: confocal fluorescence with optical tweezers; 30 nM ORF1p bound to tethered 8.1 knt ssDNA (ternary complex), 10 and 30 pN; Binding buffer with 50 mM Na+ (pH and other components not in the material), 21 C (stated for m128p); 8.1 knt ssDNA held at 5-50 pN; conditions: protein: recombinant; tags: N-terminal His; chain copies: 3; label: 5' Alexa488; single strand
Sequence of ORF1p WT (111p) (UniProt Q9UN81 1-338) (Q9UN81 whole entry): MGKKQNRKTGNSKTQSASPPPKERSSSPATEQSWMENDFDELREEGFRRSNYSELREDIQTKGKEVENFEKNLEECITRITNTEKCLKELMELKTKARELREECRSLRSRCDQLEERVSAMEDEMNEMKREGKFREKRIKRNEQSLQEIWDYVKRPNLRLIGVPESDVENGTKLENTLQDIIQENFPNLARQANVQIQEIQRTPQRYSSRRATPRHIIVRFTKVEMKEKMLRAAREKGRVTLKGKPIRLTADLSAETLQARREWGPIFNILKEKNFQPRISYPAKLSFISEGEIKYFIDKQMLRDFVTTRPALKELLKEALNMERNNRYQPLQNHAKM

Sequence of ORF1p WT (111p) (UniProt Q9UN81) (Q9UN81 whole entry): as above
Sequence of m128p (CTD, RRM, 3.5 of 14 CC heptads) (Q9UN81 128-338): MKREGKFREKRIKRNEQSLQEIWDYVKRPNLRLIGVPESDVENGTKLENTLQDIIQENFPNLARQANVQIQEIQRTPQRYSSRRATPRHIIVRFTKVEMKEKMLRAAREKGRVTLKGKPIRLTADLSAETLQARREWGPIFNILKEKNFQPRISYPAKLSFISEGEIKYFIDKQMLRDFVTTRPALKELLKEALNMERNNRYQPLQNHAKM

**Q.** Which K half (ORF1p WT (111p) [1]) does the source give for 8.1 knt ssDNA here?
**A.** The K half was 2.8 nM.

**Q.** What about the Kd (ORF1p WT (111p) [2]) of the same molecule?
**A.** The Kd was 0.17 nM.

**Q.** And the Kd [3]?
**A.** The Kd was 1.6 nM.

**Q.** Does TTTTTTTTTTTTTTTTTTTT (ssDNA) [Alexa488-dT20] bind (ORF1p WT (111p) [4])?
**A.** Result: binds
